Data: patent US5914109
Like-named read-outs stand apart in the source and are kept apart here.

Columns and labels:
[1] = target: gp41 of HIVMN (virus) (HIV-1 strain MN)
[2] = target: hexapeptide RIHIGP (pin 8) (HIV-1 strain MN); assay: pin ELISA, hexapeptide on plastic pin
[3] = target: hexapeptide TTKNII (pin 19) (HIV-1 strain MN); assay: pin ELISA, hexapeptide on plastic pin
[4] = target: hexapeptide IHIGPG (pin 9) (HIV-1 strain MN); assay: pin ELISA, hexapeptide on plastic pin
[5] = target: hexapeptide NKRKRI (pin 4) (HIV-1 strain MN); assay: pin ELISA, hexapeptide on plastic pin
[6] = target: hexapeptide IGPGRA (pin 11) (HIV-1 strain MN); assay: pin ELISA, hexapeptide on plastic pin
[7] = target: hexapeptide HIGPGR (pin 10) (HIV-1 strain MN); assay: pin ELISA, hexapeptide on plastic pin
[8] = target: hexapeptide KRKRIH (pin 5) (HIV-1 strain MN); assay: pin ELISA, hexapeptide on plastic pin
[9] = target: hexapeptide FYTTKN (pin 17) (HIV-1 strain MN); assay: pin ELISA, hexapeptide on plastic pin
[10] = target: hexapeptide YTTKNI (pin 18) (HIV-1 strain MN); assay: pin ELISA, hexapeptide on plastic pin
[11] = target: hexapeptide KRIHIG (pin 7) (HIV-1 strain MN); assay: pin ELISA, hexapeptide on plastic pin
[12] = target: hexapeptide RKRIHI (pin 6) (HIV-1 strain MN); assay: pin ELISA, hexapeptide on plastic pin
[13] = target: hexapeptide GPGRAF (pin 12) (HIV-1 strain MN); assay: pin ELISA, hexapeptide on plastic pin
[14] = target: hexapeptide YNKRKR (pin 3) (HIV-1 strain MN); assay: pin ELISA, hexapeptide on plastic pin
[15] = target: hexapeptide GRAFYT (pin 14) (HIV-1 strain MN); assay: pin ELISA, hexapeptide on plastic pin
[16] = target: hexapeptide RAFYTT (pin 15) (HIV-1 strain MN); assay: pin ELISA, hexapeptide on plastic pin
[17] = target: hexapeptide TKNIIG (pin 20) (HIV-1 strain MN); assay: pin ELISA, hexapeptide on plastic pin
[18] = target: hexapeptide PGRAFY (pin 13) (HIV-1 strain MN); assay: pin ELISA, hexapeptide on plastic pin
[19] = target: hexapeptide AFYTTK (pin 16) (HIV-1 strain MN); assay: pin ELISA, hexapeptide on plastic pin
[20] = target: 20-mer V3 peptide of HIVMN (American Bio-Technologies) (HIV-1 strain MN); assay: Friguet ELISA method, V3 MN peptide
[21] = target: gp120 of HIVMN (HIV-1 strain MN) (UniProt P05877)
[22] = target: 20-mer V3 peptide of HIVSF2 (HIV-1 isolate SF-2); assay: competition ELISA in solution at equilibrium (Friguet method)
[23] = target: recombinant gp120 protein of HIVSF2 (produced in CHO cells) (HIV-1 isolate SF-2) (UniProt P03378); assay: as above
[24] = target: gp120 of HIVMN (HIV-1 strain MN) (UniProt P05877); remark: listed apart in the source
[25] = target: recombinant gp120 protein of HIVSF2 (produced in CHO cells) (HIV-1 isolate SF-2) (UniProt P03378); assay: Friguet method; reference: the 20-mer SF-2 peptide
[26] = target: 20-mer V3 peptide of HIVSF2 (HIV-1 isolate SF-2); assay: competition ELISA in solution at equilibrium (Friguet method); remark: listed apart in the source
[27] = target: 20-mer V3 peptide of HIVMN (American Bio-Technologies) (HIV-1 strain MN); assay: as above

Substance	ELISA reactivity (absorbance units) (absorbance units) [2]	ELISA reactivity (absorbance units) (absorbance units) [3]	ELISA reactivity (absorbance units) (absorbance units) [4]	ELISA reactivity (absorbance units) (absorbance units) [5]	ELISA reactivity (absorbance units) (absorbance units) [6]	ELISA reactivity (absorbance units) (absorbance units) [7]	ELISA reactivity (absorbance units) (absorbance units) [8]	ELISA reactivity (absorbance units) (absorbance units) [9]	ELISA reactivity (absorbance units) (absorbance units) [10]	ELISA reactivity (absorbance units) (absorbance units) [11]	ELISA reactivity (absorbance units) (absorbance units) [12]	ELISA reactivity (absorbance units) (absorbance units) [13]	ELISA reactivity (absorbance units) (absorbance units) [14]	ELISA reactivity (absorbance units) (absorbance units) [15]	ELISA reactivity (absorbance units) (absorbance units) [16]	ELISA reactivity (absorbance units) (absorbance units) [17]	ELISA reactivity (absorbance units) (absorbance units) [18]	ELISA reactivity (absorbance units) (absorbance units) [19]	Kd [20]	50% neutralization, CEM-SS syncytium-forming assay, IgG concentration [21]	other results
human mAb 50-69 (antibody)	–	–	–	–	–	–	–	–	–	–	–	–	–	–	–	–	–	–	–	–	neutralizing antibody titer (50%), MT-2 plaque assay, 1 hr, no complement (titer (1:x dilution)) [1]: 3; neutralizing antibody titer (50%), MT-2 plaque assay, 18 hr with human complement (titer (1:x dilution)) [1]: 3
human mAb 257-D (antibody)	0.276	0.219	0.13	0.288	0.163	0.156	0.259	0.273	0.259	1.59	1.78	0.208	0.256	0.272	0.333	0.164	0.456	0.233	230 nM	0.01 µg/mL	90% neutralization, CEM-SS syncytium-forming assay, IgG concentration [21]: 0.88 µg/mL; Kd [22]: 630 nM; Kd [23]: 41.6 nM; neutralizing antibody titer (50%), MT-2 plaque assay, 1 hr, no complement [24]: 3 ng/mL; neutralizing antibody titer (50%), MT-2 plaque assay, 18 hr with human complement [24]: 0.3 ng/mL; Difference (Kd of the SF-2 peptide against SF-2 recombinant) [25]: 15 fold; Kd [26]: 220 nM; Kd [27]: 230 nM
human mAb 268-D (antibody)	0.135	0.212	0.132	0.283	0.164	1.01	0.239	0.274	0.259	0.179	0.252	0.132	0.243	0.288	0.35	0.141	0.346	0.222	590 nM	0.1 µg/mL	90% neutralization, CEM-SS syncytium-forming assay, IgG concentration [21]: 1 µg/mL; neutralizing antibody titer (50%), MT-2 plaque assay, 1 hr, no complement [24]: 23 ng/mL; neutralizing antibody titer (50%), MT-2 plaque assay, 18 hr with human complement [24]: 1.1 ng/mL; Kd [26]: 2300 nM; Kd [27]: 590 nM
